# Laboratory results taken from US20070178531A1 (BIOCHECK, published 2007).
# T1: Human Id1: Histidine (human, UniProt P41134 1-155, limits assumed)
# T1 construct: Fusion protein made in E. coli from vector pGW07; also called h-Id1: his; not shown: His tag
# T1 sequence (looked up): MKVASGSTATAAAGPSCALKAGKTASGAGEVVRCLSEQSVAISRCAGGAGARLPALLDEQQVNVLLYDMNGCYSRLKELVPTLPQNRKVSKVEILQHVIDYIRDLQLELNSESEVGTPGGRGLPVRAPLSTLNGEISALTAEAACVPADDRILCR
# T2: Human Id2: Histidine (human, UniProt Q02363 1-134, limits assumed)
# T2 construct: Fusion protein made in E. coli from vector pGW07; also called h-Id2: His; not shown: His tag
# T2 sequence (looked up): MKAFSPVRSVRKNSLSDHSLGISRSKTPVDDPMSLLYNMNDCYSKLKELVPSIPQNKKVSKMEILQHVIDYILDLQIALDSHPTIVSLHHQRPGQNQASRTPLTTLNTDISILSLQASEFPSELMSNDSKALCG
# T3: Mouse Id1: Histidine (mouse, UniProt P20067-2 1-148, limits assumed)
# T3 construct: Fusion protein made in E. coli from vector pGW07; also called m-Id1-His; not shown: His tag
# T3 sequence (looked up): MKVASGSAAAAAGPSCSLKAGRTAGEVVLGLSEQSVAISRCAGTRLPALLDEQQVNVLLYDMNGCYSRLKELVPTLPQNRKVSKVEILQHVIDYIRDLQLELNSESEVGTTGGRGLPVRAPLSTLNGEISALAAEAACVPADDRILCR
# T4: Mouse Id2: Histidine (mouse, UniProt P41136 1-134, limits assumed)
# T4 construct: Fusion protein made in E. coli from vector pGW07; also called m-Id2: His; not shown: His tag
# T4 sequence (looked up): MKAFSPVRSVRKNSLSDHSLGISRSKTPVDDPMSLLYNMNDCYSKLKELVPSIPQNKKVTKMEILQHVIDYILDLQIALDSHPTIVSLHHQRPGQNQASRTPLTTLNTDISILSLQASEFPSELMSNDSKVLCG
# T5: Mouse Id3: Histidine (mouse, UniProt P41133 1-119)
# T5 construct: Fusion protein made in E. coli from vector pGW07; also called m-Id3: His; Mouse Id3 (coated wells); not shown: His tag
# T5 sequence: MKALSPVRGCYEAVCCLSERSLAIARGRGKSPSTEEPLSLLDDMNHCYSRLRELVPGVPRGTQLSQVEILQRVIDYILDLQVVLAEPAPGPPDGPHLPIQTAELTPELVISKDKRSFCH
# T6: Human Id3: Histidine (human, UniProt Q02535 1-119 at identity 1.00))
# T6 construct: Fusion protein made in E. coli from vector pGW07; also called h-Id3: His; Human Id3 (coated wells); not shown: His tag
# T6 chain: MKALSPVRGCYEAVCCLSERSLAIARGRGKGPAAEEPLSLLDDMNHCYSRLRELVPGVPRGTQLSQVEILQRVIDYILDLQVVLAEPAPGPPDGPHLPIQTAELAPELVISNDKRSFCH
# B1: rabbit monoclonal anti-human Id3, clone #BCH-4/#3-3 (antibody, V domains shown)
# VH: QSVEESGGRLVTPGTPLTLTCTVSGIDLSSYAMSWVRQAPGKGLEWIGVIFPSNNVYYASWAKGRFTISKTSTTVDLKITSPTTEDTATYFCASMGAFDSWGPGTLVTVSS
# VL: QVLTQTPSPVSAAVGGTVTINCQASQSIYNDNDLAWFQQKPGQPPKLLIYDASTLTSGVPSRFKGSGSGTQFTLTISDLDCDDAATYYCAARYSGNIYGFGGGTEVVVK
# notes: Rabbit IgG from a rabbit hybridoma; also called h Id3 MoAb 3-3
# B2: rabbit monoclonal anti-mouse/human Id3, clone #BCH-4/#16-1 (antibody, V domains shown)
# VH: QSVEESGGRLVTPGTPLTLTCTASGFSLSSYYIHWVRQAPGKALEWIGYISDGGTTYYASWAKGRFTISKTSSTTVDLKMTSLTTEDTATYFCARQGFNIWGPGTLVTVSL
# VL: AVLTQTPSPVSAAVGGTVTISCQSSQSVYNNNWLSWFQQKSGQPPKLLIYETSKLESGVPSRFKGSGSGTQFTLTIIDVQCDDAATYYCLGGYWTTSDNNIFGGGTEVVVK
# notes: Rabbit IgG from a rabbit hybridoma; also called m/h Id3 MoAb 16-1
# B3: rabbit monoclonal anti-mouse/human Id3, clone #BCH-4/#17-3 (antibody, V domains shown)
# VH: QSVEESGGRLVTPGTPLTLTCTASGFSLSNVYIHWVRQAPGKGLEWIGYISDGDTARYATWAKGRFTISKTSSTTVNLKMTSLTTEDTATYFCARQGFNIWGPGTLVTVSL
# VL: AVLTQTPSPVSAAVGGTVSISCQSSQSVWNNNWLSWFQQKPGQPPKLLIYETSKLESGVPSRFKGSGSGTQFTLTISDVQCDDAATYYCLGGYWTTSDNNVFGGGTEVVVK
# notes: Rabbit IgG from a rabbit hybridoma; also called m/h Id3 MoAb 17-3; BCH-3/#17-3
# B4: rabbit monoclonal anti-mouse/human Id3, clone #BCH-4/#6-1 (antibody, V domains shown)
# VH: QSVEESGGRLVTPGTPLTLTCTASGFSLSNVYIHWVRQAPGKGLEWIGYISDGDTARYATWAKGRFTISKTSSTTVNLKMTSLTTEDTATYFCARQGFNIWGPGTLVTVSL
# VL: AVLTQTPSPVSAAVGGTVSISCQSSQSVWNNNWLSWFQQKPGQPPKLLIYETSKLESGVPSRFKGSGSGTQFTLTISDVQCDDAATYYCLGGYWTTSDNNVFGGGTEVVVK
# notes: Rabbit IgG from a rabbit hybridoma; also called m/h Id3 MoAb 6-1
# B5: rabbit monoclonal anti-mouse/human Id3, clone #BCH-4/#42-1 (antibody, V domains shown)
# VH: QSVEESGGRLVTPGTPLTLTCTASGFSLSSYYIHWVRQAPGKALEWIGYISDGGTTYYASWAKGRFTISKTSSTTVDLKMTSLTTEDTATYFCARQGFNIWGPGTLVTVSL
# VL: AVLTQTPSPVSAAVGGTVTISCQSSQSVYNNNWLSWFQQKSGQPPKLLIYETSKLESGVPSRFKGSGSGTQFTLTIIDVQCDDAATYYCLGGYWSTSDNNIFGGGTEVVVK
# notes: Rabbit IgG from a rabbit hybridoma; also called m/h Id3 MoAb 42-1
# Tests used:
# Human Id1: Histidine [1] = target: T1, Human Id1: Histidine; experiment: ELISA, Ab 0.010 µg/ml
# Protocol: (§1) The rabbit monoclonal anti-human Id3 (clone #3-3) and the rabbit monoclonal anti-mouse/human Id3 (clones #6-1, 16-1, 17-3, and 42-1) produced in Example 6 were tested reactivity against the following antigens: mouse Id1:His, human Id1:His, mouse Id2:His, human Id2:His, mouse Id3:His, human Id3:His, mouse Id4:His, human Id4:His and GST.
# (§2) 1. Microtiter wells (prepared in accordance with Example 6) were coated (0.1 μg/well) with mouse Id1:His, human Id1:His, human Id2:His, human Id3:His, and 1.0 μg/well with GST. [0155] 2. Antibody Diluent: 0.25% (w/v) BSA in 0.015M KPO₄ Buffer, 0.85% (w/v) NaCl, 0.1% (w/v) NaN₃, pH=7.40 [0156] 3. Rabbit monoclonal anti-human Id3 (clone #3-3) prepared in Example 7 was diluted to […] with the antibody diluent. […] 4. Rabbit monoclonal anti-mouse/human Id3 (clones #6-1, 16-1, 17-3, 42-1) prepared in Example 7 was diluted to 0.005, 0.010, 0.025, 0.05, 0.10, 0.25, and 0.50 μg/ml with the antibody diluent. […] 5. Conjugate Diluent: 50% (v/v) which consists of an aqueous solution containing Fetal Bovine Serum in 0.05 M Tris, 1% (v/v) Proclin-300, pH 7.6. [0159] 6. Conjugate: Goat anti-rabbit IgG (H+L)-HRP conjugate. [0160] 7. TMB reagent. […] 8. Stop solution (1 N HCI). Method
# (§3) 1. Dispense 100 μL of antibody diluent, diluted rabbit monoclonal human Id3, and mouse/human Id3 hybridoma supernatants into appropriate wells. […] 2. Incubate at room temperature with mechanical shaking at 750 rpm for 90 minutes. [0165] 3. Remove the incubation mixture by flicking plate content into an appropriate waste container followed by rinsing the wells 5 times with distilled water. [0166] 4. Strike the wells sharply onto absorbent paper or paper towels to remove all residual water droplets. [0167] 5. Dispense 100 μL of 1:50,000 Goat Anti-Rabbit IgG-HRP Conjugate Reagent into each well. Gently mix for 5 seconds. [0168] 6. Incubate at room temperature with mechanical shaking at 750 rpm for 90 minutes. [0169] 7. Repeat procedures 3 and 4. [0170] 8. Dispense 100 μL of TMB Reagent into each well. Gently mix for 5 seconds. [0171] 9. Incubate at room temperature with mechanical shaking at 750 rpm for 20 minutes. […] 10.
# Human Id2: Histidine [2] = target: T2, Human Id2: Histidine; experiment: ELISA, Ab 0.010 µg/ml
# Protocol: as §1, §2, §3
# Mouse Id1: Histidine [3] = target: T3, Mouse Id1: Histidine; experiment: ELISA, Ab 0.010 µg/ml
# Protocol: as §1, §2, §3
# Mouse Id2: Histidine = target: T4, Mouse Id2: Histidine; experiment: ELISA, Ab 0.010 µg/ml
# Protocol: as §1, §2, §3
# Human Id1: Histidine [4] = target: T1, Human Id1: Histidine; experiment: ELISA, Ab 0.100 µg/ml
# Protocol: as §1, §2, §3
# Human Id2: Histidine [5] = target: T2, Human Id2: Histidine; experiment: ELISA, Ab 0.100 µg/ml
# Protocol: as §1, §2, §3
# Mouse Id1: Histidine [6] = target: T3, Mouse Id1: Histidine; experiment: ELISA, Ab 0.100 µg/ml
# Protocol: as §1, §2, §3
# [7] = target: T7, glutathione S-transferase (GST) (UniProt P08515 1-218 = GST); experiment: ELISA, Ab 0.100 µg/ml
# T7 construct: also called carrier protein GST
# Protocol: as §1, §2, §3
# Mouse Id3: Histidine = target: T5, Mouse Id3: Histidine; experiment: ELISA, Ab 0.010 µg/ml
# Protocol: as §1, §2, §3
# Human Id3: Histidine [8] = target: T6, Human Id3: Histidine; experiment: ELISA, Ab 0.010 µg/ml
# Protocol: as §1, §2, §3
# Human Id3: Histidine [9] = target: T6, Human Id3: Histidine; experiment: ELISA, Ab 0.100 µg/ml
# Protocol: as §1, §2, §3
# T7 sequence (P08515 whole entry): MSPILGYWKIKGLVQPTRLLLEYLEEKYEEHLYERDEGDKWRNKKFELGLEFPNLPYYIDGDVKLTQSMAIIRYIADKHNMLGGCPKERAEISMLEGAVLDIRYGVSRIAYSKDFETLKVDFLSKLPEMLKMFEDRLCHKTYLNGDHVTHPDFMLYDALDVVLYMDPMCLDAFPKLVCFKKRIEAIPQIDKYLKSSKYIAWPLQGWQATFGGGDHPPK
Binder,A450 (Human Id1: Histidine [1]) [A450],A450 (Human Id2: Histidine [2]) [A450],A450 (Mouse Id1: Histidine [3]) [A450],A450 (Mouse Id2: Histidine) [A450],A450 (Human Id1: Histidine [4]) [A450],A450 (Human Id2: Histidine [5]) [A450],A450 (Mouse Id1: Histidine [6]) [A450],A450 [7] [A450],A450 (Mouse Id3: Histidine) [A450],A450 (Human Id3: Histidine [8]) [A450],A450 (Human Id3: Histidine [9]) [A450]
B1,0.046,0.043,0.047,0.045,0.047,0.048,0.047,0.048,–,–,–
B2,0.042,0.044,0.05,0.049,0.047,0.048,0.047,0.049,0.432,0.391,1.99
B3,0.046,0.043,0.047,0.048,0.048,0.048,0.051,0.052,0.69,0.581,2.6
B4,0.049,0.044,0.044,0.048,0.049,0.049,0.049,0.047,0.539,0.491,2.36
B5,0.045,0.046,0.043,0.05,0.047,0.046,0.049,0.049,0.756,0.713,2.6
